Experimental data as given in US20020127229A1, “Tumour therapy” (priority 1996, published 2002).

How the values were obtained:
target cells in vitro = conditions: cited from earlier work
[1] = test system: human colon carcinoma LS174T; parameters: species or system nude mice; conditions: mouse, in vivo
Experimental: The following figures (FIGS. 2 to 6) illustrate the biodistribution of carboxypeptidase G2 conjugated to PEG in nude mice bearing the human colon carcinoma LS174T. The mice were injected intravenously with the specified amount of enzyme (measured as enzyme units) using 4 mice per time point. Mice were killed at 24 h, 48 h, and 72 h after injection, in some cases at 96 h and 120 h. CPG2 activity in plasma was measured by spectrophotometric assay using methotrexate as the substrate. CPG2 activity in tumour and other tissues was measured by HPLC using methotrexate as the substrate.
The biodistribution of native CPG2 and PEG-CPG2 at 72 hours is illustrated in FIGS. 7 and 8.
FIG. 4(a). Biodistribution of CPG2 activity following use of galactosylated SB43 (clearing antibody). Mice were given CPG2 conjugated to PEG 2000 mwt, average 22 mols PEG per molecule of CPG2, at time 0. Galactosylated monoclonal antibody SB43 was given 19, 20 and 21 hrs later by IP route. The mice were killed at 24 h post CPG2.
In relation to FIG. 4(a) and 4(b) these show good tumour to normal tissue concentration and ratios following use of the clearing antibody. However, it is not possible to administer the clearing antibody as efficiently in the mouse as in the human patient.
I have investigated PEG (mol wt 5000) in the range of 13-32 PEG molecules per enzyme molecule (CPG2, mol wt 83,000); the higher the molecular weight the higher and more prolonged is the plasma concentration of enzyme achieved. The higher the plasma concentration the higher tumour concentration in the tumour model LS174T. Since one objective is to get as much enzyme into the tumour as possible and prolong the period for which an effective concentration of enzyme is sustained in the tumour the conjugate giving the highest concentration of enzyme in blood is preferred. However, the choice of conjugate also has to take account of the need to clear enzyme from blood after the desired concentration of enzyme has been achieved in the tumour(s) and before prodrug is given. A conjugate which is difficult to clear from blood would be disadvantageous so that compromise between these two requirements may be necessary.
Thus, PEG with a molecular weight of 2000 in the range 20 to 40 PEG molecules per molecule of enzyme is preferred, giving a total molecular weight in the range of around 130-160 kDal, but associated water of hydration gives a molecular size equivalent to molecules of much greater weight.

LS174T tumours = assay: Tumour growth delay in the LS174T tumour model (MDEPT therapy); assay type: in vivo, nude mice; conditions: with CPG2 clearance antibody SB43 and the phenol prodrug (25 mg/kg i.p., 3 doses)
Experimental: FIG. 6. Nude mice bearing LS174T tumours were given 25 enzyme units of CPG2-PEG (22 PEG molecules, PEG 5000) followed at 20 hr, 23 h, 26 h by galactosylated SB43. At 48 h post CPG2-PEG they received 25 mg/kg of a phenol prodrug (4-[N,N-bis(2-chloroethyl)amino]-phenoxycarbonyl-L-glutamic acid) intraperiotoneally, repeated to a total of 3 doses at 1 hr intervals.
FIG. 6. Nude mice bearing LS174T tumours were given 25 enzyme units of CPG2-PEG (22 PEG molecules, PEG 5000) followed at 20 hr, 23 h, 26 h by galactosylated SB43. At 48 h post CPG2-PEG they received 25 mg/kg of a phenol prodrug intraperiotoneally, repeated to a total of 3 doses at 1 hr intervals.

CC(NC(=O)C(CCC(=O)O)NC(=O)c1ccc(N(C)Cc2cnc3nc(N)nc(N)c3n2)cc1)C(=O)O (stereo not drawn) [Alanine methotrexate]
toxicity relative to native methotrexate (fold less) (target cells in vitro): 50-100 fold

B1: Native ^125I-CPG2: bacterial enzyme carboxypeptidase G2, not conjugated to PEG (protein, UniProt P06621 23-415, looked up)
Carboxypeptidase G2: ALAQKRDNVLFQAATDEQPAVIKTLEKLVNIETGTGDAEGIAAAGNFLEAELKNLGFTVTRSKSAGLVVGDNIVGKIKGRGGKNLLLMSHMDTVYLKGILAKAPFRVEGDKAYGPGIADDKGGNAVILHTLKLLKEYGVRDYGTITVLFNTDEEKGSFGSRDLIQEEAKLADYVLSFEPTSAGDEKLSLGTSGIAYVQVNITGKASHAGAAPELGVNALVEASDLVLRTMNIDDKAKNLRFNWTIAKAGNVSNIIPASATLNADVRYARNEDFDAAMKTLEERAQQKKLPEADVKVIVTRGRPAFNAGEGGKKLVDKAVAYYKEAGGTLGVEERTGGGTDAAYAALSGKPVIESLGLPGFGYHSDKAEYVDISAIPRRLYMAARLIMDLGAGK
modifications: 125I label
notes: bacterial enzyme carboxypeptidase G2, not conjugated to PEG
clearance from blood, tumour and normal tissues [1]: clears rapidly

B2: PEG 5000 at 22 PEGs per CPG2: CPG2 conjugated to PEG 5000, 22 PEG molecules per CPG2 (conjugate, UniProt P06621 23-415, looked up)
Carboxypeptidase G2: ALAQKRDNVLFQAATDEQPAVIKTLEKLVNIETGTGDAEGIAAAGNFLEAELKNLGFTVTRSKSAGLVVGDNIVGKIKGRGGKNLLLMSHMDTVYLKGILAKAPFRVEGDKAYGPGIADDKGGNAVILHTLKLLKEYGVRDYGTITVLFNTDEEKGSFGSRDLIQEEAKLADYVLSFEPTSAGDEKLSLGTSGIAYVQVNITGKASHAGAAPELGVNALVEASDLVLRTMNIDDKAKNLRFNWTIAKAGNVSNIIPASATLNADVRYARNEDFDAAMKTLEERAQQKKLPEADVKVIVTRGRPAFNAGEGGKKLVDKAVAYYKEAGGTLGVEERTGGGTDAAYAALSGKPVIESLGLPGFGYHSDKAEYVDISAIPRRLYMAARLIMDLGAGK
modifications: PEG 5000, 22 per molecule
notes: CPG2 conjugated to PEG 5000, 22 PEG molecules per CPG2
tumour growth delay compared to untreated controls (LS174T tumours): significant growth delay

B3: PEG 2000: CPG2 conjugated to PEG 2000 mwt (average 22-27 PEG molecules per CPG2) (conjugate, UniProt P06621 23-415, looked up)
Carboxypeptidase G2: ALAQKRDNVLFQAATDEQPAVIKTLEKLVNIETGTGDAEGIAAAGNFLEAELKNLGFTVTRSKSAGLVVGDNIVGKIKGRGGKNLLLMSHMDTVYLKGILAKAPFRVEGDKAYGPGIADDKGGNAVILHTLKLLKEYGVRDYGTITVLFNTDEEKGSFGSRDLIQEEAKLADYVLSFEPTSAGDEKLSLGTSGIAYVQVNITGKASHAGAAPELGVNALVEASDLVLRTMNIDDKAKNLRFNWTIAKAGNVSNIIPASATLNADVRYARNEDFDAAMKTLEERAQQKKLPEADVKVIVTRGRPAFNAGEGGKKLVDKAVAYYKEAGGTLGVEERTGGGTDAAYAALSGKPVIESLGLPGFGYHSDKAEYVDISAIPRRLYMAARLIMDLGAGK
modifications: PEG 2000, 22-27 per molecule
plasma levels compared with PEG 5000 [1]: lower | tumour concentrations of enzyme compared with PEG 5000 [1]: similar

B4: PEG (5000) 32-CPG2: CPG2 conjugated to PEG 5000 mwt, average 32 PEG molecules per molecule of CPG2 (conjugate, UniProt P06621 23-415, looked up)
Carboxypeptidase G2: ALAQKRDNVLFQAATDEQPAVIKTLEKLVNIETGTGDAEGIAAAGNFLEAELKNLGFTVTRSKSAGLVVGDNIVGKIKGRGGKNLLLMSHMDTVYLKGILAKAPFRVEGDKAYGPGIADDKGGNAVILHTLKLLKEYGVRDYGTITVLFNTDEEKGSFGSRDLIQEEAKLADYVLSFEPTSAGDEKLSLGTSGIAYVQVNITGKASHAGAAPELGVNALVEASDLVLRTMNIDDKAKNLRFNWTIAKAGNVSNIIPASATLNADVRYARNEDFDAAMKTLEERAQQKKLPEADVKVIVTRGRPAFNAGEGGKKLVDKAVAYYKEAGGTLGVEERTGGGTDAAYAALSGKPVIESLGLPGFGYHSDKAEYVDISAIPRRLYMAARLIMDLGAGK
modifications: PEG 5000, 32 per molecule
notes: CPG2 conjugated to PEG 5000 mwt, average 32 PEG molecules per molecule of CPG2
plasma concentration of enzyme [1]: high and persistent
